Assay results reported in patent publication US20150368351A1 (ENGMAB SARL, published 2015).

B1: 13A4 anti-BCMA IgG (antibody, V domains shown)
VH: EVQLVQSGAEVKKPGESLKISCKGSGYSFTSYWIGWVRQMPGKGLEWMGIIYPGDSDTRYSPSFQGQVTISADKSISTAYLQWSSLKASDTAMYYCARNGYLGDYWGQGTLVTVSS
VL: not shown
B2: anti-BCMA Fab clone 13A4 (Fab, V domains shown)
VH: EVQLVQSGAEVKKPGESLKISCKGSGYSFTSYWIGWVRQMPGKGLEWMGIIYPGDSDTRYSPSFQGQVTISADKSISTAYLQWSSLKASDTAMYYCARNGYLGDYWGQGTLVTVSS
VL: not shown
notes: detected by anti-FLAG antibody

Legend:
[1] = molecular target: T1, human BCMA on BCMA-expressing multiple myeloma cells (H929, RPMI-8226) (human, UniProt Q02223 1-184); test: flow cytometry on H929 cells; IgG 20 µg/mL incubated together with competitor Δ-APRIL 2.5 µg/mL; fluorochrome-conjugated anti-human Fc detection
T1 construct: whole, on cells; Endogenous BCMA on H929 (ATCC CRL-9068) or RPMI 8226 (ATCC CCL-155) cells; also called TNFRSF17; H929 cells
T1 sequence (looked up): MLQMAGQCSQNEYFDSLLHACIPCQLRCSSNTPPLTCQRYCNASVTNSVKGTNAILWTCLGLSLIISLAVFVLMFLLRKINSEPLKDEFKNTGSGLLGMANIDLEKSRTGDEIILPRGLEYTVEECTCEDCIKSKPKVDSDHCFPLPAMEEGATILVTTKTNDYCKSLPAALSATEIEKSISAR

[2] = molecular target: T2, recombinant human BCMA Fc(kih) (human, UniProt Q02223 4-53, biotin on the avi-tag at the C-terminus of the Fc knob chain (BirA, in vivo)); test: SPR, Biacore T200, 25 C; IgG captured by anti-human Fab antibody on CM5 chip, BCMA Fc(kih) as analyte, 1:1 Langmuir
T2 construct: range 4-53;domain: Fc portion (hole chain); Monomeric Fc fusion made in HEK EBNA cells: one BCMA extracellular domain on the knob chain, paired with an unfused hole chain; also called huBCMA Fc(kih); biotinylated human BCMA; not shown: hinge and Fc portion of human IgG1, knob chain (knobs-into-holes)
T2 chain (looked up): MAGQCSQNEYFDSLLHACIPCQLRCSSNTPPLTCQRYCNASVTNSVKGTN

[3] = molecular target: T2, recombinant human BCMA Fc(kih); test: SPR, ProteOn XPR36, 25 C; biotinylated BCMA on NLC chip by neutravidin capture, Fab as analyte, 1:1 Langmuir
[4] = molecular target: T2, recombinant human BCMA Fc(kih); test: competition ELISA; biotinylated human BCMA on neutravidin plate saturated with 500 or 1000 nM Fab, competitor murine APRIL 50 nM (1000 ng/mL); anti-FLAG-HRP, OD450-650
[5] = molecular target: T2, recombinant human BCMA Fc(kih); test: competition ELISA; biotinylated human BCMA on neutravidin plate saturated with 500 or 1000 nM Fab, competitor murine APRIL 6.25 nM (140 ng/mL); anti-FLAG-HRP, OD450-650

Row | Binder | Reduction (↓) in binding of anti-BCMA antibodies in presence of APRIL [1] [%] | Kd [2] [nM] | koff [2] [s⁻¹] | kon [2] [M⁻¹ s⁻¹] | Kd [3] [nM] | Reduction (↓) in OD values in presence of muAPRIL [4] [%] | Reduction (↓) in OD values in presence of muAPRIL [5] [%]
1 | B1 | 25 | 5.1 | 0.00036 | 72000 |  |  | 
2 | B2 |  |  |  |  | 1.8 | 13.1 | 7.7
